T1: recombinant human Trop-2-his protein (ACCESSION NO.: NP_002344.2, AA 1-274) (human, UniProt P09758 27-274)
T1 construct: range 27-274; also called recombinant human Trop-2 protein; recombinant human Trop-2 extracellular domain; not shown: his tag
T1 sequence (looked up): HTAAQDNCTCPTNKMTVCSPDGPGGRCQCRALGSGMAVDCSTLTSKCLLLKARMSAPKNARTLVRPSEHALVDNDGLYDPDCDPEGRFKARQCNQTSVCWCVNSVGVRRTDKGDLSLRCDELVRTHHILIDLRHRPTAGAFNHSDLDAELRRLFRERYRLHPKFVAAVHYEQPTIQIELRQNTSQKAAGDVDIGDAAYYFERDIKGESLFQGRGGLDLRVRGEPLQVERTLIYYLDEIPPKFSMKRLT


Molecular target: T1, recombinant human Trop-2-his protein …
Experiment: BLI, antibody on AHC sensor, Trop-2-his 60 nM
Protocol: 5-6 days after cell transfection, culture supernatants were purified through ProA affinity chromatography column to obtain different humanized antibodies. Affinities of the obtained antibodies were determined by an assay including capturing Fc fragments of the antibodies with anti-human IgG Fc capture (AHC) biosensors using Octet QKe system instrument from Fortebio. For the assay, each of the humanized antibodies and control antibody Sacituzumab was diluted to 4 μg/ml in PBS, and was allowed to flow through the surface of an AHC biosensor (Cat.: 18-0015, PALL) for 120 s. Recombinant human Trop-2-his protein (ACCESSION NO.: NP_002344.2, AA 1-274) was used as a mobile phase, and its concentration was 60 nM. The binding time was 100 s and the dissociation time was 300 s. When the assay was finished, data from which the response values of blank control had been deducted were fitted to a 1:1 Langmuir binding model using software, and then kinetic constants for antigen-antibody binding were calculated.
Affinities of the antibodies obtained from the combinations of mutants of murine antibody 23-12, chimeric antibody ch23-12 and control antibody Sacituzumab to recombinant human Trop-2-his protein were determined by ForteBijo (Table 5).

Row | Kd | Binder
1 | 0.272 nM | h23-12-1 (antibody, human IgG1, kappa, V domains shown, also called CDR grafted antibody 23-12) VH: QVQLVQSGAEVKKPGASVKVSCKASGYTFTSYWMHWVRQAPGQGLEWMGEITPSDNYTSYNQKFKGRVTITRDTSTSTAYMELSSLRSEDTAVYYCARGHGNYVSFDYWGQGTLVTVSS VL: DIQMTQSPSSLSASVGDRVTITCRASQDISNYLNWYQQKPGKAPKLLIYYTSRLHSGVPSRFSGSGSGTDFTLTISSLQPEDFATYFCQQGYTLPPYTFGQGTKLEIKR
2 | 10 nM | h23-12-19 (antibody, human IgG1, kappa, V domains shown) VH: QVQLVQSGAEVKKPGASVKVSCKASGYTFTSYWMHWVRQAPGQGLEWMGEITPSDNYTSYAQKFKGRVTITRDTSTSTAYMELSSLRSEDTAVYYCARGHGNYVSFDYWGQGTLVTVSS VL: DIQMTQSPSSLSASVGDRVTITCRASQDISNYLNWYQQKPGKAPKLLIYYTSSLHSGVPSRFSGSGSGTDFTLTISSLQPEDFATYFCQQGYTLPPYTFGQGTKLEIKR
3 | 15 nM | h23-12-3 (antibody, human IgG1, kappa, V domains shown) VH: QVQLVQSGAEVKKPGASVKVSCKASGYTFTSYWMHWVRQAPGQGLEWMGEITPSDGYTSYNQKFKGRVTITRDTSTSTAYMELSSLRSEDTAVYYCARGHGNYVSFDYWGQGTLVTVSS VL: DIQMTQSPSSLSASVGDRVTITCRASQDISNYLNWYQQKPGKAPKLLIYYTSRLHSGVPSRFSGSGSGTDFTLTISSLQPEDFATYFCQQGYTLPPYTFGQGTKLEIKR
4 | 0.881 nM | h23-12-11 (antibody, human IgG1, kappa, V domains shown) VH: QVQLVQSGAEVKKPGASVKVSCKASGYTFTSYWMHWVRQAPGQGLEWMGEITPSDNYGSYNQKFKGRVTITRDTSTSTAYMELSSLRSEDTAVYYCARGHGNYVSFDYWGQGTLVTVSS VL: DIQMTQSPSSLSASVGDRVTITCRASQDISNYLNWYQQKPGKAPKLLIYYASRLHSGVPSRFSGSGSGTDFTLTISSLQPEDFATYFCQQGYTLPPYTFGQGTKLEIKR
5 | 1.1 nM | h23-12-9 (antibody, human IgG1, kappa, V domains shown) VH: QVQLVQSGAEVKKPGASVKVSCKASGYTFTSYWMHWVRQAPGQGLEWMGEITPGDNYTSYNQKFKGRVTITRDTSTSTAYMELSSLRSEDTAVYYCARGHGNYVSFDYWGQGTLVTVSS VL: DIQMTQSPSSLSASVGDRVTITCRASQDISNYLNWYQQKPGKAPKLLIYYASRLHSGVPSRFSGSGSGTDFTLTISSLQPEDFATYFCQQGYTLPPYTFGQGTKLEIKR
6 | 0.991 nM | h23-12-18 (antibody, human IgG1, kappa, V domains shown) VH: QVQLVQSGAEVKKPGASVKVSCKASGYTFTSYWMHWVRQAPGQGLEWMGEITPSDNYGSYNQKFKGRVTITRDTSTSTAYMELSSLRSEDTAVYYCARGHGNYVSFDYWGQGTLVTVSS VL: DIQMTQSPSSLSASVGDRVTITCRASQDISNYLNWYQQKPGKAPKLLIYYTSSLHSGVPSRFSGSGSGTDFTLTISSLQPEDFATYFCQQGYTLPPYTFGQGTKLEIKR
7 | 6.8 nM | h23-12-7 (antibody, human IgG1, kappa, V domains shown) VH: QVQLVQSGAEVKKPGASVKVSCKASGYTFTSYWMHWVRQAPGQGLEWMGEITPSDNYTSYNQKFKGRVTITRDTSTSTAYMELSSLRSEDTAVYYCARGQGNYVSFDYWGQGTLVTVSS VL: DIQMTQSPSSLSASVGDRVTITCRASQDISNYLNWYQQKPGKAPKLLIYYTSRLHSGVPSRFSGSGSGTDFTLTISSLQPEDFATYFCQQGYTLPPYTFGQGTKLEIKR
8 | 1.43 nM | h23-12-15 (antibody, human IgG1, kappa, V domains shown) VH: QVQLVQSGAEVKKPGASVKVSCKASGYTFTSYWMHWVRQAPGQGLEWMGEITPSDNYTSYNQKFKGRVTITRDTSTSTAYMELSSLRSEDTAVYYCARGHGNYVSFDYWGQGTLVTVSS VL: DIQMTQSPSSLSASVGDRVTITCRASQDISNYLNWYQQKPGKAPKLLIYYTSSLHSGVPSRFSGSGSGTDFTLTISSLQPEDFATYFCQQGYTLPPYTFGQGTKLEIKR
9 | 0.9 nM | h23-12-8 (antibody, human IgG1, kappa, V domains shown) VH: QVQLVQSGAEVKKPGASVKVSCKASGYTFTSYWMHWVRQAPGQGLEWMGEITPSDNYTSYNQKFKGRVTITRDTSTSTAYMELSSLRSEDTAVYYCARGHGNYVSFDYWGQGTLVTVSS VL: DIQMTQSPSSLSASVGDRVTITCRASQDISNYLNWYQQKPGKAPKLLIYYASRLHSGVPSRFSGSGSGTDFTLTISSLQPEDFATYFCQQGYTLPPYTFGQGTKLEIKR
10 | 28 nM | h23-12-17 (antibody, human IgG1, kappa, V domains shown) VH: QVQLVQSGAEVKKPGASVKVSCKASGYTFTSYWMHWVRQAPGQGLEWMGEITPSDGYTSYNQKFKGRVTITRDTSTSTAYMELSSLRSEDTAVYYCARGHGNYVSFDYWGQGTLVTVSS VL: DIQMTQSPSSLSASVGDRVTITCRASQDISNYLNWYQQKPGKAPKLLIYYTSSLHSGVPSRFSGSGSGTDFTLTISSLQPEDFATYFCQQGYTLPPYTFGQGTKLEIKR
11 | 26.2 nM | h23-12-12 (antibody, human IgG1, kappa, V domains shown) VH: QVQLVQSGAEVKKPGASVKVSCKASGYTFTSYWMHWVRQAPGQGLEWMGEITPSDNYTSYAQKFKGRVTITRDTSTSTAYMELSSLRSEDTAVYYCARGHGNYVSFDYWGQGTLVTVSS VL: DIQMTQSPSSLSASVGDRVTITCRASQDISNYLNWYQQKPGKAPKLLIYYASRLHSGVPSRFSGSGSGTDFTLTISSLQPEDFATYFCQQGYTLPPYTFGQGTKLEIKR
12 | 2.87 nM | h23-12-16 (antibody, human IgG1, kappa, V domains shown) VH: QVQLVQSGAEVKKPGASVKVSCKASGYTFTSYWMHWVRQAPGQGLEWMGEITPGDNYTSYNQKFKGRVTITRDTSTSTAYMELSSLRSEDTAVYYCARGHGNYVSFDYWGQGTLVTVSS VL: DIQMTQSPSSLSASVGDRVTITCRASQDISNYLNWYQQKPGKAPKLLIYYTSSLHSGVPSRFSGSGSGTDFTLTISSLQPEDFATYFCQQGYTLPPYTFGQGTKLEIKR
13 | 0.298 nM | h23-12-6 (antibody, human IgG1, kappa, V domains shown) VH: QVQLVQSGAEVKKPGASVKVSCKASGYTFTSYWMHWVRQAPGQGLEWMGEITPSDNYTSYNQKFKGRVTITRDTSTSTAYMELSSLRSEDTAVYYCARGEGNYVSFDYWGQGTLVTVSS VL: DIQMTQSPSSLSASVGDRVTITCRASQDISNYLNWYQQKPGKAPKLLIYYTSRLHSGVPSRFSGSGSGTDFTLTISSLQPEDFATYFCQQGYTLPPYTFGQGTKLEIKR
14 | 0.916 nM | h23-12-13 (antibody, human IgG1, kappa, V domains shown) VH: QVQLVQSGAEVKKPGASVKVSCKASGYTFTSYWMHWVRQAPGQGLEWMGEITPSDNYTSYNQKFKGRVTITRDTSTSTAYMELSSLRSEDTAVYYCARGEGNYVSFDYWGQGTLVTVSS VL: DIQMTQSPSSLSASVGDRVTITCRASQDISNYLNWYQQKPGKAPKLLIYYASRLHSGVPSRFSGSGSGTDFTLTISSLQPEDFATYFCQQGYTLPPYTFGQGTKLEIKR
15 | 0.827 nM | h23-12-4 (antibody, human IgG1, kappa, V domains shown) VH: QVQLVQSGAEVKKPGASVKVSCKASGYTFTSYWMHWVRQAPGQGLEWMGEITPSDNYGSYNQKFKGRVTITRDTSTSTAYMELSSLRSEDTAVYYCARGHGNYVSFDYWGQGTLVTVSS VL: DIQMTQSPSSLSASVGDRVTITCRASQDISNYLNWYQQKPGKAPKLLIYYTSRLHSGVPSRFSGSGSGTDFTLTISSLQPEDFATYFCQQGYTLPPYTFGQGTKLEIKR
16 | 9.62 nM | h23-12-10 (antibody, human IgG1, kappa, V domains shown) VH: QVQLVQSGAEVKKPGASVKVSCKASGYTFTSYWMHWVRQAPGQGLEWMGEITPSDGYTSYNQKFKGRVTITRDTSTSTAYMELSSLRSEDTAVYYCARGHGNYVSFDYWGQGTLVTVSS VL: DIQMTQSPSSLSASVGDRVTITCRASQDISNYLNWYQQKPGKAPKLLIYYASRLHSGVPSRFSGSGSGTDFTLTISSLQPEDFATYFCQQGYTLPPYTFGQGTKLEIKR
17 | 0.893 nM | h23-12-2 (antibody, human IgG1, kappa, V domains shown) VH: QVQLVQSGAEVKKPGASVKVSCKASGYTFTSYWMHWVRQAPGQGLEWMGEITPGDNYTSYNQKFKGRVTITRDTSTSTAYMELSSLRSEDTAVYYCARGHGNYVSFDYWGQGTLVTVSS VL: DIQMTQSPSSLSASVGDRVTITCRASQDISNYLNWYQQKPGKAPKLLIYYTSRLHSGVPSRFSGSGSGTDFTLTISSLQPEDFATYFCQQGYTLPPYTFGQGTKLEIKR
18 | 3.2 nM | h23-12-5 (antibody, human IgG1, kappa, V domains shown) VH: QVQLVQSGAEVKKPGASVKVSCKASGYTFTSYWMHWVRQAPGQGLEWMGEITPSDNYTSYAQKFKGRVTITRDTSTSTAYMELSSLRSEDTAVYYCARGHGNYVSFDYWGQGTLVTVSS VL: DIQMTQSPSSLSASVGDRVTITCRASQDISNYLNWYQQKPGKAPKLLIYYTSRLHSGVPSRFSGSGSGTDFTLTISSLQPEDFATYFCQQGYTLPPYTFGQGTKLEIKR
19 | 23.9 nM | h23-12-14 (antibody, human IgG1, kappa, V domains shown) VH: QVQLVQSGAEVKKPGASVKVSCKASGYTFTSYWMHWVRQAPGQGLEWMGEITPSDNYTSYNQKFKGRVTITRDTSTSTAYMELSSLRSEDTAVYYCARGQGNYVSFDYWGQGTLVTVSS VL: DIQMTQSPSSLSASVGDRVTITCRASQDISNYLNWYQQKPGKAPKLLIYYASRLHSGVPSRFSGSGSGTDFTLTISSLQPEDFATYFCQQGYTLPPYTFGQGTKLEIKR

— patent US20240092930A1 (MABWELL SHANGHAI BIOSCIENCE, published 2024)
